{"source": "patent US8003357B2", "about": "“Acidophilic enzymes” (Helmholtz-Zentrum Fuer Infektionsforschung GmbH, priority 2005, dated 2011)", "format_in_all_cases": "biochemical", "key": {"[1]": {"experiment": "pH and temperature dependence, stability and activity of recombinant acidic enzymes", "description": "The acidic enzymes according to the invention were expressed in E. coli using the genomiccoding sequence for the respective enzyme from Ferroplasma acidiphilum, which are described in detail below. For enzymatic conversions, reaction conditions were in 100 mM sodium acetate buffer, 100 mM citrate buffer, 100 mM HEPES buffer for 2 minutes at 30° C., using p-nitrophenol propionate as the substrate for esterase, starch in the case of glycosidases, and HindIII digested λ DNA for ligase.\nThe activity was assayed using p-nitrophenol propionate as a substrate for esterase, starch for αGluFA and GlyFA1, GlyFA2, and HindIII digested λ DNA for LigFA.\nThe acidic enzymes according to the invention in vitro show similar elevated reaction temperatures. Substrates were as described for FIG. 2 above.\nAn overview of catalytic and molecular properties of acidic enzymes that were heterologously expressed in E. coli is given in the following Table III: […]"}, "TOP 2 fragmented DNA": {"test_system": "TOP 2 fragmented DNA", "experiment": "Religation of topoisomerase 2 induced DNA breaks", "conditions": "LigFA pH 4.0 to 2.0; T4 ligase acidic pH values; FIG. 9", "description": "For a comparison of the religation activities of acidic LigFA to T4 ligase on DNA containing breaks caused by topoisomerase 2 (TOP 2), ligation activities were determined in vitro at various pH values. The results are shown in the non-denaturing agarose gel of FIG. 9.\nDNA was incubated with TOP 2 to induce DNA damage. At pH 5.0, TOP 2 caused DNA breaks (lane 2) but not at pH 3.0 (lane 3)."}, "[2]": {"test_system": "5′ phosphorylated oligonucleotides; Sau3A digested λ DNA", "experiment": "DNA ligation using LigFA", "conditions": "40° C.", "description": "For DNA ligation, double-stranded DNA fragments, each comprising a complementary 3′ overhang which were phosphorylated in 5′ can be ligated in a total volume of 20 μL ligation buffer (100 mM Na-citrate, pH 3.0, 10 μM Fe^2+, 0.01-0.1 mM ATP, optionally 0.5 mM dithiothreitol), 0.1-5 micrograms DNA and 1 to 20 nmoles ligase. The reaction conditions are 40° C. for 5 minutes to 2 hours, the reaction can be stopped by the addition of stop buffer 98% (vol/vol) formamide, 10 mM EDTA, 0.05% bromophenol blue, 0.05% xylene cyanol, 0.2% SDS), followed by heating to 95° C. for 5 minutes or, alternatively, by adding stop/loading buffer (30% sucrose, 150 mM EDTA, 0.15% SDS, 0.03% bromophenol blue), and heating to 90° C. for 2 minutes.\nOligonucleotides were phosphorylated in 5′.\nReactions were carried out in different buffers: HEPES, pH 7.0 (lane 1), HEPES, pH 6.0 (lane 2), sodium acetate, pH 5.0 (lane 3), sodium acetate, pH 4.0 (lane 4), sodium citrate, pH 3.0 to 0.5 (lanes 5 to 9, respectively). For detection of ligation, gel electrophoresis on a 10% denaturing polyacrylamide gel containing 7 M urea in TBE buffer (90 mM Tris-borate, 2.5 mM EDTA), staining with ethidium bromide. A densitometric reproduction of the gel region containing 60 base fragments is represented in FIG. 7. […]"}, "[3]": {"experiment": "Fe2+ content (ICP-MS) and Fe2+ dependence of activity, dialysis against EDTA", "conditions": "relative to wild type = 100; after dialysis against 1 mM EDTA; 100 mM sodium citrate, 10 mM FeCl2", "description": "The UV-VIS absorption spectra of purified acidic enzymes are shown in FIG. 4, wherein the uninterrupted lines refer to Fe^2+ containing enzymes and the interrupted lines refer to enzymes after dialysis against EDTA containing buffer. The λ-max values found at ca. 572 nm correlate with the Fe^2+ content, i.e. disappear after incubation with EDTA or DTT for 24 h. ICP-MS analysis confirmed the presence of 0.82±0.10 mol Fe in EstFA, 0.34±0.08 mol Fe in αGluFA, […] and 0.63±0.09 mol Fe in LigFA.\nIn FIG. 5, relative activities of acidic enzymes with varying content of Fe^2+ are shown. For analysis, purified enzymes were incubated in 1 mM EDTA. At time intervals indicated, two aliquots were removed, one was used for hydrolysis of respective substrates, the other for ICP-MS analysis of Fe. For relative activities, activities before incubation with EDTA were used as 100% values.\nWhen further investigating the dependence of the acidic enzymes according to the invention on Fe^2+, relative activity for EstFA, αGluFA and LigFA were investigated for their natural Fe^2+ content, e.g. wild-type, which was set to 100%, in comparison to the activity after dialysis against a 1 mM EDTA containing buffer."}}, "data": [{"molecule": "LigFA: DNA ligase obtainable from Ferroplasma acidiphilum, 595 amino acids, Seq. ID No. 3, Fe2+ dependent (protein, listed as Ferroplasma acidiphilum, CDS (1)..(927) est FA, ID No. 3, Fe2+ dependent) MHLMNMVDPDFNSLIELSKSAGDMTKIEPAMLRNFLDESSLSSRGAPVEIKEIKDYKIKLDGRTLNARMYDDNNAKSAILYYHGGGFLFGNIETYDNYCRFLAKESGVKIISIEYRLAPEHKFPDAFNDAYDSFHYIAKKKKDFGIEGRIGVAGDSAGANLAAALCLKCRDGKTEMPAVQVLFYPSLAPDNFSRSFIEYSDNYVLTGKMIRYFGNMYSKNMQDLINPYFSPLVADDFSNLPPAIMVTNEYDPLRDPEETYVKKLREAGVRAVGIRGIGMIHGSATDFEVSDGARNIVKMVARIIPDYL", "values": [{"measurement": "enzymatic stability at elevated temperatures", "setting": "[1]; FIG. 2, LigFA pH 3.0, EstFA and αGluFA pH 2.0 at 40 and 50° C., GlyFA1 and GlyFA2 pH 4.0 at 40° C.", "value": "good stability"}, {"measurement": "Optimum temperature", "setting": "[1]; measured at optimum pH", "value": 40, "unit": "°C"}, {"measurement": "Optimum pH", "setting": "[1]; measured at optimum temperature", "value": "1.5-3.0"}, {"measurement": "religation of TOP 2 fragmented DNA at acidic pH", "setting": "TOP 2 fragmented DNA", "value": "clearly demonstrated"}, {"measurement": "ligation of Sau3A digested λ DNA", "setting": "[2]; 20 nM LigFA, 2 hours", "value": "demonstrates ligation"}, {"measurement": "ligation of two oligonucleotides (35 and 25 bases) on a 70 base oligonucleotide", "setting": "[2]; 20 nM ligFA, 5 minutes", "value": "ligation was obtained"}, {"measurement": "activity, +EDTA", "setting": "[3]", "value": 0.15, "unit": "%"}]}]}
